Experimental findings from publication PMC10148881, “Recognition of an Ala-rich C-degron by the E3 ligase Pirh2” (Nature Communications, 2023) are described below.

Holding throughout (assay): ITC; peptides (0.6–1.0 mM) titrated into the cell with 180–220 μM protein at 16 °C; 20 mM Tris-HCl pH 7.5, 150 mM NaCl, 10 μM Zn2+; one-site binding model
Common to all, as to settings: both partners purified
Background: Isothermal titration calorimetry measures the heat released or taken up as one component is titrated into another.

For experiment [1], the target named is T1, Pirh2 NTD + RING (residues 1–189) (human, UniProt Q96PM5 1-189).
T1 construct: human Pirh2 (Rchy1), NTD + RING, residues 1–189; source: E. coli BL21 (DE3), purified (Ni-NTA, TEV cleavage, SEC); not shown: 8xHis-SUMO, N-terminal, cleaved
T1 sequence (looked up): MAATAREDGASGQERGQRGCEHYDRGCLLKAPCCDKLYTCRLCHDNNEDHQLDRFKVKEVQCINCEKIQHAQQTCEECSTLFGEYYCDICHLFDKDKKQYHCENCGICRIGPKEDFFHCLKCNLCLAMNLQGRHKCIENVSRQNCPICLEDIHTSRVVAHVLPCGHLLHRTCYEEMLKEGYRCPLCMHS

In experiment [2] the target is T2, full-length Pirh2 (residues 1–261) (human, UniProt Q96PM5 1-261).
T2 construct: human Pirh2 (Rchy1, RING finger and CHY zinc finger domain-containing protein 1), residues 1–261; Cloned into pET28-MKH8SUMO; the tag was cut off with TEV protease; also called Rchy1; p53-induced RING-H2 protein; source: E. coli BL21 (DE3), purified (Ni-NTA, TEV cleavage, SEC); not shown: 8xHis-SUMO, N-terminal, cleaved
T2 sequence (looked up): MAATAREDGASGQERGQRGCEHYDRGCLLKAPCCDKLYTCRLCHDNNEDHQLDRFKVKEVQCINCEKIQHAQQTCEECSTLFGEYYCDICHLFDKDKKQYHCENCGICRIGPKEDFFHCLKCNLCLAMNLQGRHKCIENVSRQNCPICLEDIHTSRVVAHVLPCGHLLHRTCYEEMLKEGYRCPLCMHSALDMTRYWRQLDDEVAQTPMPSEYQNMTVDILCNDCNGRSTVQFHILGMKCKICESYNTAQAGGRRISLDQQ

The target of experiment [3] is T3, Pirh2 NTD (residues 1–137) (human, UniProt Q96PM5 1-137).
T3 construct: human Pirh2 (Rchy1), NTD, residues 1–137; also called CHY zinc finger; source: E. coli BL21 (DE3), purified (Ni-NTA, TEV cleavage, SEC); not shown: 8xHis-SUMO, N-terminal, cleaved
T3 sequence (looked up): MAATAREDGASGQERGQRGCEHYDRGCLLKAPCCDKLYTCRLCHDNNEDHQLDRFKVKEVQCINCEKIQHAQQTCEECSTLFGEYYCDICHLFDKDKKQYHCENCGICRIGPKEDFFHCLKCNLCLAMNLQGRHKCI

B1: Ala6/C-degron peptide (sequence: YKTSAAAAAA) (peptide)
peptide: YKTSAAAAAA
notes: decapeptide with a C-terminal six-Ala degron and a free C-terminus; also called decapeptide containing the Ala6/C-degron; six-Ala peptide; source: synthetic peptide
Consider B1, for which the Kd in experiment [1] came out at 0.5 µM; in experiment [2] it was 0.9 µM; in experiment [3], 5.5 µM.
On to YKTSAAAATA [Ala6/C-degron peptide with the threonine mutation of Ala-2], for which, in experiment [1], the Kd came out at 15 µM.

A word on the Kd: it is a measure of binding affinity in units of concentration.
